Data published in EP1852441B1, “Agents that modulate EPH receptor activity” (The Burnham Institute, priority 2002, dated 2004).

molecular target: EphA4 Fc (EphA4 receptor extracellular domain fused to a human Fc region); experiment: inhibition of ephrin-A5 AP binding to EphA4
Sequence (Q03137 20-547): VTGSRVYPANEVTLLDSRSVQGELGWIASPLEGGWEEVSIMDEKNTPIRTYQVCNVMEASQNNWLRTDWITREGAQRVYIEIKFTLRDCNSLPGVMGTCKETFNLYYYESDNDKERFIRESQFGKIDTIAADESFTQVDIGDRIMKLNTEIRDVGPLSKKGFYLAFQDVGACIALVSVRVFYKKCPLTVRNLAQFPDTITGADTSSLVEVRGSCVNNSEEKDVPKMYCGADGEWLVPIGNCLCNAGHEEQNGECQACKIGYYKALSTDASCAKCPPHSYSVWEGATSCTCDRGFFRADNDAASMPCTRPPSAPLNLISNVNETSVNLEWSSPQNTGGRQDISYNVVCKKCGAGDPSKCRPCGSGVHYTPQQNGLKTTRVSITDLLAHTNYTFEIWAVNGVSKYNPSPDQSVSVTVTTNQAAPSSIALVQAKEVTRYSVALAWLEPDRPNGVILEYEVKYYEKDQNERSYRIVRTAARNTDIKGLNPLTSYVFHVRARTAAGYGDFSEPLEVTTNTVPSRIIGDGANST

| concentration that almost completely inhibits ephrin-A5 AP binding [µM] | Substance |
| --- | --- |
| 10 | synthetic APY peptide (…) |
| 1 | synthetic KYL peptide (…) |
| 100 | synthetic VTM peptide (…) |
